Like-named read-outs stand apart in the source and are kept apart here.
T1: recombinant cyno Tie2 extracellular domain (cynomolgus monkey, UniProt Q02763 23-748 (human entry))
T1 construct: also called Recombinant cyno Tie2 ECD; cy Tie2
T1 chain: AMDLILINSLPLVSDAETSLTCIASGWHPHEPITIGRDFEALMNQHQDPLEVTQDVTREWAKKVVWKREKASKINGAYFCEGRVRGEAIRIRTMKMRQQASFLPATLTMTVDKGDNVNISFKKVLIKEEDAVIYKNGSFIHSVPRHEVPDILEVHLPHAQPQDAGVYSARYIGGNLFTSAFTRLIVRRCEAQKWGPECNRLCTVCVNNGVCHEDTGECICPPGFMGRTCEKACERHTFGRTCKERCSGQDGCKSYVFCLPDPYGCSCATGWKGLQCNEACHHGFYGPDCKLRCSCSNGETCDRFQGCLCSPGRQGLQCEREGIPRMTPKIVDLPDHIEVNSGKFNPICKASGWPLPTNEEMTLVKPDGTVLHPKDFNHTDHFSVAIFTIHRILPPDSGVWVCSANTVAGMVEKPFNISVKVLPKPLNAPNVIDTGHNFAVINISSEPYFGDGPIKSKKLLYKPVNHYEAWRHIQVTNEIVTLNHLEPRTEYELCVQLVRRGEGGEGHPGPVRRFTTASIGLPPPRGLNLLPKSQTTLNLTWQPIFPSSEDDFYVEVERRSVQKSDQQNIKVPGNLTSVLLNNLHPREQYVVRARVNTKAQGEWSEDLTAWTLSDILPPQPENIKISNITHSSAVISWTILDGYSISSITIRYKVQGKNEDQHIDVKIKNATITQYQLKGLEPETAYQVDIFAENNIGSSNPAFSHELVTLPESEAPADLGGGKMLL


What was measured:
Experiment in all cases: SPR, IgG captured, 37C
[1] = target: T2, recombinant human Tie2 extracellular domain (human, UniProt Q02763 23-748)
T2 construct: whole entry named; also called Recombinant human Tie2 ECD; hu Tie2
T2 sequence (Q02763 23-748 limits assumed): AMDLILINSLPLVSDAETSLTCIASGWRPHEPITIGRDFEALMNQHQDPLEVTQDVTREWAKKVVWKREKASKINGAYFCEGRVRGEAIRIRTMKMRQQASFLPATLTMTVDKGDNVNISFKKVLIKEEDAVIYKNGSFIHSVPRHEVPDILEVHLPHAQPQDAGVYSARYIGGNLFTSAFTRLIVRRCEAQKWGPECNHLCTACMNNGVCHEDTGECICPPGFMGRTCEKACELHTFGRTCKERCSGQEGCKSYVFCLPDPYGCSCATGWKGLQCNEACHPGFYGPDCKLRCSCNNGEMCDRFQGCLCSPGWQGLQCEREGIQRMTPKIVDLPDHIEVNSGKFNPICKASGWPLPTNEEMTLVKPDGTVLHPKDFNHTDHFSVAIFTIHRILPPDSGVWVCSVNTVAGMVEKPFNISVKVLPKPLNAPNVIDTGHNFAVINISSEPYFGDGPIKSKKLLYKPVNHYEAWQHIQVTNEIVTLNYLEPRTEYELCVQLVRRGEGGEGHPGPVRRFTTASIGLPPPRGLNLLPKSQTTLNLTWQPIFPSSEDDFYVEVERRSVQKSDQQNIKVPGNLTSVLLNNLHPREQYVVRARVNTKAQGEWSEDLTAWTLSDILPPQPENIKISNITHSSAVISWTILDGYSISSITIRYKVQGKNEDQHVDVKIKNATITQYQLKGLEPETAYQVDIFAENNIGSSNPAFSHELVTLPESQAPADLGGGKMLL
Procedure: (§1) A human antibody capture chip was prepared using a Series S CM5 chip (GE Life Sciences), a human antibody capture kit (GE Life Sciences) and an amine coupling kit (GE Life Sciences). Antibodies diluted to 5 μg/ml in running buffer (10 mM HEPES, 150 mM NaCl, 0.05% Tween 20, 1 mM EDTA, pH 7.4) were non-covalently captured using a contact time of 20 seconds and a flow rate of 10 μl/minute. Binding to 300 nM and 1500 nM recombinant Tie2 was analyzed at 37° C. using a Single Cycle Kinetics method with a contact time of 60 seconds, a dissociation time of 120 seconds and a flow rate of 50 μl/min. Between cycles, the surface was regenerated by a 30 second injection of 3M MgCl₂ at a flow rate of 30 μl/min. Values for antibody capture levels and analyte binding levels were obtained from the Report Point Table (Biacore Evaluation Software v3.0, GE Life Sciences). […] Table 16: Experiment A; Table 17: Experiment B.

[2] = target: T1, recombinant cyno Tie2 extracellular …
Procedure: as §1

[3] = target: T2, recombinant human Tie2 extracellular …; remark: listed apart in the source
Procedure: as §1

[4] = target: T1, recombinant cyno Tie2 extracellular …
Procedure: as §1

| Binder | Normalized Binding Signal, 300 nM [1] | Normalized Binding Signal, 1500 nM [1] | Normalized Binding Signal, 300 nM [2] | Normalized Binding Signal, 1500 nM [2] | Normalized Binding Signal, 300 nM [3] | Normalized Binding Signal, 1500 nM [3] | Normalized Binding Signal, 300 nM [4] | Normalized Binding Signal, 1500 nM [4] |
| --- | --- | --- | --- | --- | --- | --- | --- | --- |
| Tie2.1.M100cA (antibody, IgG1, name in Kabat numbering, V domains shown, hIgG1) VH: EVQLVESGGGLVQPGGSLRLSCAASGFTFSNTDISWVRQAPGKGLEWVGRISPSDGNTYYADSVKGRFTISADTSKNTAYLQMNSLRAEDTAVYYCARRTRWASWAADYWGQGTLVTVSS VL: DIQMTQSPSSLSASVGDRVTITCRASQDVSTAVAWYQQKPGKAPKLLIYSASFLYSGVPSRFSGSGSGTDFTLTISSLQPEDFATYYCQQSYTTPPTFGQGTKVEIKR | 0.03 | 0.14 | 0.03 | 0.13 |  |  |  |  |
| Tie2.1.M100cC (antibody, IgG1, name in Kabat numbering, V domains shown, hIgG1) VH: EVQLVESGGGLVQPGGSLRLSCAASGFTFSNTDISWVRQAPGKGLEWVGRISPSDGNTYYADSVKGRFTISADTSKNTAYLQMNSLRAEDTAVYYCARRTRWASWACDYWGQGTLVTVSS VL: DIQMTQSPSSLSASVGDRVTITCRASQDVSTAVAWYQQKPGKAPKLLIYSASFLYSGVPSRFSGSGSGTDFTLTISSLQPEDFATYYCQQSYTTPPTFGQGTKVEIKR | 0.11 | 0.37 | 0.1 | 0.35 |  |  |  |  |
| Tie2.1.M100cK (antibody, IgG1, name in Kabat numbering, V domains shown, hIgG1) VH: EVQLVESGGGLVQPGGSLRLSCAASGFTFSNTDISWVRQAPGKGLEWVGRISPSDGNTYYADSVKGRFTISADTSKNTAYLQMNSLRAEDTAVYYCARRTRWASWAKDYWGQGTLVTVSS VL: DIQMTQSPSSLSASVGDRVTITCRASQDVSTAVAWYQQKPGKAPKLLIYSASFLYSGVPSRFSGSGSGTDFTLTISSLQPEDFATYYCQQSYTTPPTFGQGTKVEIKR | 0.13 | 0.41 | 0.11 | 0.39 |  |  |  |  |
| Tie2.1.M100cI (antibody, IgG1, name in Kabat numbering, V domains shown, hIgG1) VH: EVQLVESGGGLVQPGGSLRLSCAASGFTFSNTDISWVRQAPGKGLEWVGRISPSDGNTYYADSVKGRFTISADTSKNTAYLQMNSLRAEDTAVYYCARRTRWASWAIDYWGQGTLVTVSS VL: DIQMTQSPSSLSASVGDRVTITCRASQDVSTAVAWYQQKPGKAPKLLIYSASFLYSGVPSRFSGSGSGTDFTLTISSLQPEDFATYYCQQSYTTPPTFGQGTKVEIKR | 0.03 | 0.14 | 0.03 | 0.13 | 0.04 | 0.14 | 0.03 | 0.12 |
| Tie2.1.M100cG (antibody, IgG1, name in Kabat numbering, V domains shown, hIgG1) VH: EVQLVESGGGLVQPGGSLRLSCAASGFTFSNTDISWVRQAPGKGLEWVGRISPSDGNTYYADSVKGRFTISADTSKNTAYLQMNSLRAEDTAVYYCARRTRWASWAGDYWGQGTLVTVSS VL: DIQMTQSPSSLSASVGDRVTITCRASQDVSTAVAWYQQKPGKAPKLLIYSASFLYSGVPSRFSGSGSGTDFTLTISSLQPEDFATYYCQQSYTTPPTFGQGTKVEIKR | 0.06 | 0.21 | 0.05 | 0.2 |  |  |  |  |
| Tie2.1.M100cH (antibody, IgG1, name in Kabat numbering, V domains shown, hIgG1) VH: EVQLVESGGGLVQPGGSLRLSCAASGFTFSNTDISWVRQAPGKGLEWVGRISPSDGNTYYADSVKGRFTISADTSKNTAYLQMNSLRAEDTAVYYCARRTRWASWAHDYWGQGTLVTVSS VL: DIQMTQSPSSLSASVGDRVTITCRASQDVSTAVAWYQQKPGKAPKLLIYSASFLYSGVPSRFSGSGSGTDFTLTISSLQPEDFATYYCQQSYTTPPTFGQGTKVEIKR | 0.11 | 0.39 | 0.1 | 0.36 |  |  |  |  |

The remaining lines, values ahead:

| Normalized Binding Signal, 300 nM [1] | Normalized Binding Signal, 1500 nM [1] | Normalized Binding Signal, 300 nM [2] | Normalized Binding Signal, 1500 nM [2] | Normalized Binding Signal, 300 nM [3] | Normalized Binding Signal, 1500 nM [3] | Normalized Binding Signal, 300 nM [4] | Normalized Binding Signal, 1500 nM [4] | Binder |
| --- | --- | --- | --- | --- | --- | --- | --- | --- |
| 0.06 | 0.22 | 0.05 | 0.2 |  |  |  |  | Tie2.1.M100cR (antibody, IgG1, name in Kabat numbering, V domains shown, hIgG1) VH: EVQLVESGGGLVQPGGSLRLSCAASGFTFSNTDISWVRQAPGKGLEWVGRISPSDGNTYYADSVKGRFTISADTSKNTAYLQMNSLRAEDTAVYYCARRTRWASWARDYWGQGTLVTVSS VL: DIQMTQSPSSLSASVGDRVTITCRASQDVSTAVAWYQQKPGKAPKLLIYSASFLYSGVPSRFSGSGSGTDFTLTISSLQPEDFATYYCQQSYTTPPTFGQGTKVEIKR |
| 0.02 | 0.11 | 0.02 | 0.1 |  |  |  |  | Tie2.1.M100cP (antibody, IgG1, name in Kabat numbering, V domains shown, hIgG1) VH: EVQLVESGGGLVQPGGSLRLSCAASGFTFSNTDISWVRQAPGKGLEWVGRISPSDGNTYYADSVKGRFTISADTSKNTAYLQMNSLRAEDTAVYYCARRTRWASWAPDYWGQGTLVTVSS VL: DIQMTQSPSSLSASVGDRVTITCRASQDVSTAVAWYQQKPGKAPKLLIYSASFLYSGVPSRFSGSGSGTDFTLTISSLQPEDFATYYCQQSYTTPPTFGQGTKVEIKR |
| 0.11 | 0.38 | 0.1 | 0.36 |  |  |  |  | Tie2.1.M100cN (antibody, IgG1, name in Kabat numbering, V domains shown, hIgG1) VH: EVQLVESGGGLVQPGGSLRLSCAASGFTFSNTDISWVRQAPGKGLEWVGRISPSDGNTYYADSVKGRFTISADTSKNTAYLQMNSLRAEDTAVYYCARRTRWASWANDYWGQGTLVTVSS VL: DIQMTQSPSSLSASVGDRVTITCRASQDVSTAVAWYQQKPGKAPKLLIYSASFLYSGVPSRFSGSGSGTDFTLTISSLQPEDFATYYCQQSYTTPPTFGQGTKVEIKR |
| 0.12 | 0.41 | 0.1 | 0.39 | 0.13 | 0.42 | 0.11 | 0.4 | Tie2.1.M100cL (antibody, IgG1, name in Kabat numbering, V domains shown, hIgG1) VH: EVQLVESGGGLVQPGGSLRLSCAASGFTFSNTDISWVRQAPGKGLEWVGRISPSDGNTYYADSVKGRFTISADTSKNTAYLQMNSLRAEDTAVYYCARRTRWASWALDYWGQGTLVTVSS VL: DIQMTQSPSSLSASVGDRVTITCRASQDVSTAVAWYQQKPGKAPKLLIYSASFLYSGVPSRFSGSGSGTDFTLTISSLQPEDFATYYCQQSYTTPPTFGQGTKVEIKR |
| 0.04 | 0.16 | 0.04 | 0.15 |  |  |  |  | Tie2.1.M100cV (antibody, IgG1, name in Kabat numbering, V domains shown, hIgG1) VH: EVQLVESGGGLVQPGGSLRLSCAASGFTFSNTDISWVRQAPGKGLEWVGRISPSDGNTYYADSVKGRFTISADTSKNTAYLQMNSLRAEDTAVYYCARRTRWASWAVDYWGQGTLVTVSS VL: DIQMTQSPSSLSASVGDRVTITCRASQDVSTAVAWYQQKPGKAPKLLIYSASFLYSGVPSRFSGSGSGTDFTLTISSLQPEDFATYYCQQSYTTPPTFGQGTKVEIKR |
| 0.02 | 0.1 | 0.02 | 0.09 |  |  |  |  | Tie2.1.M100cT (antibody, IgG1, name in Kabat numbering, V domains shown, hIgG1) VH: EVQLVESGGGLVQPGGSLRLSCAASGFTFSNTDISWVRQAPGKGLEWVGRISPSDGNTYYADSVKGRFTISADTSKNTAYLQMNSLRAEDTAVYYCARRTRWASWATDYWGQGTLVTVSS VL: DIQMTQSPSSLSASVGDRVTITCRASQDVSTAVAWYQQKPGKAPKLLIYSASFLYSGVPSRFSGSGSGTDFTLTISSLQPEDFATYYCQQSYTTPPTFGQGTKVEIKR |
| 0.08 | 0.31 | 0.07 | 0.29 |  |  |  |  | Tie2.1.M100cW (antibody, IgG1, name in Kabat numbering, V domains shown, hIgG1) VH: EVQLVESGGGLVQPGGSLRLSCAASGFTFSNTDISWVRQAPGKGLEWVGRISPSDGNTYYADSVKGRFTISADTSKNTAYLQMNSLRAEDTAVYYCARRTRWASWAWDYWGQGTLVTVSS VL: DIQMTQSPSSLSASVGDRVTITCRASQDVSTAVAWYQQKPGKAPKLLIYSASFLYSGVPSRFSGSGSGTDFTLTISSLQPEDFATYYCQQSYTTPPTFGQGTKVEIKR |

— US20210332142A1 (Genentech, published 2021)
